Test results reported in the nanobody polyreactivity screen of Harvey et al. (2022).

assay: yeast display, Sf9 membrane polyspecificity reagent, FACS + sequencing; frameworks hold sequencing errors
In short: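 Galactose-induced (36–48 hours) yeast carrying a synthetic nanobody display library were exposed to 10% biotinylated, detergent-solubilized Sf9 membrane reagent at 4 °C for 1 hour. FACS followed streptavidin microbead enrichment, using low and high (top ~1%) gates for expression (anti-HA) and reagent binding (streptavidin). Colony PCR, MiSeq 2 × 250 sequencing and CDR-length filtering followed. Labels for polyreactivity reflect the gate of origin.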

Sequence | polyreactivity (PSR sort gate)
QVQLVESGGGLVQAGGSLRLSCAASGRIFTYAMGWYRQAPGKERELVAAISRRGGSTYYADSVKGRFTISRDNAKNTVYLQMNSLKPEDTAVYYCAKERSFGDGNFDYEYWGQGTQVTVSS | high polyreactivity
QVQLVESGGGLVQAGGSLRLSCAASGRIFTYYAMGWYRQAPGKEREFVAAISRSGGSTYYADSVKGRFTISRDNAKNTVYFQMNSLKPEDTAVYSCAADPPYRGRRGFDHNYWGQGTQVTVSS | high polyreactivity
QVQLVESGGGLVQAGGSLRLSCAASGRIFTYYAMGWYRQAPGKERELVAAINFNSGSTYYADSVKGRFTISRDTAKNTVYLQMNSLKPEDTAVYYCAAVPRRGLPKSYYYWGQGTQVTVSS | high polyreactivity
QVQLVESGGGLVQAGGSLRLSCAASGRIFTYYAMGWYRQAPGKERELVAAITGSGGSTYYADSVKGRFTISRDNAKNTVYLQMNSLKPEDTAVYYCAAYWFTATWYYYWGQGTQVTVSS | high polyreactivity
QVQLVESGGGLVQAGGSLRLSCAASGRIFTYYAMGWYRQAPGKERELVASITGSGGSTDYADSVKGRFTISLDNAKNTVYLQMNSLKPEDTAVYYCAADHSGVSRYDYWGQGTQVTVSS | low polyreactivity
QVQLVESGGGLVQAGGSLRLSCAASGRIFTYYAMGWYRQVPGKERELVAGISGSGTSTYYADSVKGRFTISRDNAKNTVYLQMNSLKPEDTAVYYCAAIRRQKGLWDYYYWGQGTQVTVSS | low polyreactivity
QVQLVESGGGLVQAGGSLRLSCAASGRIFVANAMGWYRPAPGKERELVAAISGRGSRTYYADSVKGRFTISRDNAKNTVYLQMNSLKPEDTAVYYCAVRKNRQYTGDYWGQGTQVTVSS | high polyreactivity
QVQLVESGGGLVQAGGSLRLSCAASGRIFVANAMGWYRQAPGKERELVAAISGRGSRTYYADSVKGRFTISRDNAKNTVYLQMNSLKPEDTAVYYCAARYRYDGRYDYWGQGTQVTVSS | high polyreactivity
QVQLVESGGGLVQAGGSLRLSCAASGRIFVANAMGWYRQAPGKERELVAAISSSGSTNYADSVKGRFTISRDNAKNTVYLQMNSLKPEDTAVYYCAKQHLSTGSWFDPFEMDYWGQGTQVTVSS | low polyreactivity
QVQLVESGGGLVQAGGSLRLSCAASGRIFVFNAMGWYRQAPGKERELVAAITWSGGTTYYADSVKGRFTISRDNAKNTVYLQMNSLKPEDTAVYFCNAYLNRRMGYWGQGTQVTVSS | high polyreactivity
QVQLVESGGGLVQAGGSLRLSCAASGRIFVFNDMGWYRQAPGKERELVAAISSGGNTYYADSVKGRFTISRDNAKNTVYLQMNSLKPEDTAVYYCAKVSRWSYKGSPYDYWGQGTQVTVSS | high polyreactivity
QVQLVESGGGLVQAGGSLRLSCAASGRIFVGNAMGWYRQAPGKERELVAAISRSGGRTYYADSVKGRFTISRDNAKNTVYLQMNSLKPEDTAVYYCYTRVYAGKYDYWGQGTQVTVSS | high polyreactivity
QVQLVESGGGLVQAGGSLRLSCAASGRIFVGYAMGWYRQAPGKERELVAAISRGGSTNYADSVKGRFTISRDNAKNTVYLQMNSLKPDDTAVYYCAKTYRTRWWGNGGDYWGQGTQVTVSS | high polyreactivity
QVQLVESGGGLVQAGGSLRLSCAASGRIFVGYAMGWYRQAPGKVREFFAAITWSGGSTSYADSVKGRFTISRDNAKNTVYLQKNSLKPEDTAVYYCNARRYYYFGLSLYEYDYWGQGTQVTVSS | low polyreactivity
QVQLVESGGGLVQAGGSLRLSCAASGRIFVINAMGWYRQAPGKERELVAAISSSGGSTSYADSVKGRFTISRDNAKNTVYFQMNSLKPEDTAVYYCAAKPRVRRVDGYYWGQGTQVTVSS | high polyreactivity
QVQLVESGGGLVQAGGSLRLSCAASGRIFVINAMGWYRQAPGKERELVAAISSSGGSTSYADSVKGRFTISRDNAKNTVYLQMNSLKPEDTAVYYCAAKPRVRRVDGYYWGQGSQVTVSS | high polyreactivity
QVQLVESGGGLVQAGGSLRLSCAASGRIFVIYAMGWYRQAPGKERELVAVISSDGSTYYADSVKGRFTISRDNAKNTVYLQMNSLKPEDTAVYYCAADRIGRYRPYIGWVVRSYYWGQGTQVTVSS | low polyreactivity
QVQLVESGGGLVQAGGSLRLSCAASGRIFVLYAMGWYRHSPGKERELVAAINWSGGSTFYADSVKGRFTISRDNAKNTVYLQMNSLKPEDTAVYYCNARGLRVKYDYWGQGTQVTVSS | high polyreactivity
QVQLVESGGGLVQAGGSLRLSCAASGRIFVLYAMGWYRQAPGKERELVAAINWSGGSTFYADSVKGRFTISRDNAKNTVYLQMNSLKPEDTAVYYCAADPYFWSALRIGQNDYWGQGTQVTVSS | high polyreactivity
QVQLVESGGGLVQAGGSLRLSCAASGRIFVNNAMGWYRPAPGKERELVAAISKRGGSTYYADSLKGRFTISRDNAMNTVYLHMNSLKPEDTAVYYCAASGYRYPIDGDYWGQGTEVTVSS | high polyreactivity
QVQLVESGGGLVQAGGSLRLSCAASGRIFVNYAMGWYRQAPGKERELVAAITSSGGSTYYADSVKGRFTISRDNAKNTVYLQMNSLKPEDTAVYYCAARWGRGLEFDYWGQGTQVTVSS | high polyreactivity

Sequence | polyreactivity (PSR sort gate)
QVQLVESGGGLVQAGGSLRLSCAASGRIFVPYVMGWYRQAPGKERELVAAISSSGGSTYYADSVKGRFTISRDNAKNTVYLQMNSLKQEDTAVYYCAKPYYFHEEDHWGQGSQVTVSS | low polyreactivity
QVQLVESGGGLVQAGGSLRLSCAASGRIFVPYVMGWYRQAPGKERELVASISDSDTSTYYADSVKGRFTISRDNAKNTVYLQMNCLKPEDTAVYYCNVDYWGQGTQVTVSS | low polyreactivity
QVQLVESGGGLVQAGGSLRLSCAASGRIFVPYVMGWYRQAPGKERELVASISDSDTSTYYADSVKGRFTISRDNAKNTVYLQMNSLKPEDSAVYYCNVDYWGQGTQVTVSS | low polyreactivity
QVQLVESGGGLVQAGGSLRLSCAASGRIFVPYVMGWYRQAPGKERELVASISDSDTSTYYADSVKGRFTISRDNAKNTVYVQMNSLKPEDTAVYYCNVDYWGQGTQVTVSS | low polyreactivity
QVQLVESGGGLVQAGGSLRLSCAASGRIFVQYAMGWYRQAPGKERELVAAISGSGGRTYYADSVKGRFTISRDNAKNTVYLQMNSLKPEDTAVYYCNTARLHGQTQGGDYWGQGTQVTVSS | high polyreactivity
QVQLVESGGGLVQAGGSLRLSCAASGRIFVQYAMGWYRQAPGKERELVAAISGSGGRTYYADSVKGRFTISRDNAKNTVYLQMNSLKPEDTAVYYCNTARRHGQTQGGDYWGQGTQLTVSS | high polyreactivity
QVQLVESGGGLVQAGGSLRLSCAASGRIFVRNAMGWYRQAPGKERELVADITNGGSTNYADSVKGRFTITRDNAKNTVYLQMNSLKPEDTAVYYCAADTLGVYDGDYWGQVTQVTVSS | low polyreactivity
QVQLVESGGGLVQAGGSLRLSCAASGRIFVRYAMGWYRQAPGKERELVAAISWSAGSTYYADSVKGRFTISRDNAKNTVYLQMNSLKPEDTAVYYCAAEYGNYETGHYGIYDYWGQGTQVTVSS | low polyreactivity
QVQLVESGGGLVQAGGSLRLSCAASGRIFVRYARGWYSQAPGKERELVAAITSGGRTSYADSVKGRFTISRDNAKNTVYLQMNSLKPEDTAVYYWNVVSRNSIRFDYWGQGTQVTVSS | high polyreactivity
QVQLVESGGGLVQAGGSLRLSCAASGRIFVRYTMGWYRQAPGKERELVAAITKRGGSTYYADSVKGRFTISRDNAKNTVYLQMNSLKPEDTAVYYCATDGLGYNRPQDEYWGLGTQVTVSS | high polyreactivity
QVQLVESGGGLVQAGGSLRLSCAASGRIFVSNAMGWYRLAPGKERELVATISRSGGNTYYADSVKGRFTISRDNAKNTVYLQMNSLKPEYTAVYYSNSVSRRSYVKYDYWRQGTQVTVSS | high polyreactivity
QVQLVESGGGLVQAGGSLRLSCAASGRIFVSNTMGWYRQAPGKERELVAVIRTDSGSTYYADSVKGRFTISRDNAKNTVYLQMNSLKPEDTAVYYCAKVAYFASYRTGFYYWGQGTQVTVSS | high polyreactivity
QVQLVESGGGLVQAGGSLRLSCAASGRIFVSNVRGWYRQAPGKERELVAAIDKSGGSTYYADSVKGRFTISRDNAKNSVYLQMNSLKPEDTAVYYCAATSYRQPYRYYYWGQGTQVTVSS | high polyreactivity
QVQLVESGGGLVQAGGSLRLSCAASGRIFVSYAMGWYRQAPGKERELVAAISRGGSTYYADSVKGRFTISRDNAKNTVYLQMNSLKPEDTAVYYCAARPSYRYGYWGQGTQVTVSS | high polyreactivity
QVQLVESGGGLVQAGGSLRLSCAASGRIFVSYAMGWYRQAPGKERELVATINIGSDTYYADSVKGRFTISRDNAKNTVYLQMNSLKPEDTAVYYCAKDYYEGDSYPYPGYEYWGQGTQVTVSS | low polyreactivity
QVQLVESGGGLVQAGGSLRLSCAASGRIFVTYAMGWYRQEPGKERELVAAISASGGSTYSADSVKGRFTISRDNAKNTVYLQMNSLKPEDTAVYYCAASYRSSLRPWAEDGFWGQGTQVTVSS | high polyreactivity
QVQLVESGGGLVQAGGSLRLSCAASGRIFVVNAMGWYRQAPGKERELVAAISRSGGSTYYADSVKGRFTISRDNAKNTVYLQMNSLKPEETAVYFCAAVSWIYSFSAMSIYDYWGQGTQVTVSS | high polyreactivity
QVQLVESGGGLVQAGGSLRLSCAASGRIFVVNAMGWYRQAPGKERELVAAITRRGGSTYADSVKGRFTISRDNAKNTVYLQMNSLKPEDTAVYYCNAESYSGIFSYKYDYWGQGTQVTVSS | high polyreactivity
QVQLVESGGGLVQAGGSLRLSCAASGRIFVYNAMGWYRQAPGKEREFVATITSSGGRTYYADSVKGRFTISRDNAKNTVYLQMNSLKPEDTAVYYCAARPQNNGRNPVYRYNYWGQGTQVTVSS | high polyreactivity
QVQLVESGGGLVQAGGSLRLSCAASGRIFVYNAMGWYRQAPGKERELVAAITSGGSTYYADSVKGRFTISRDNAKNTVYLQMNSLKPEDTAVYYCAATYFSYTYSRYDYWGQGTQVTVSS | high polyreactivity
